Test results: paper PMC7496859

Tests used:
[1] = SEC; preparative SEC on Superdex 200 10/300 GL after Strep-Tactin affinity chromatography; running buffer 20 mM Tris/HCl pH 8.0, 150 mM NaCl; changes of pH, salt and buffering agent, addition of calcium or EDTA had no influence on the monomer/dimer ratio
[2] = target: SmuA(V465E), sucrose isomerase from Serratia plymuthica, produced in the cytoplasm of E. coli (Serratia plymuthica); assay: as above
[3] = target: SmuA(V465E), sucrose isomerase from Serratia plymuthica, produced in the periplasm of E. coli (Serratia plymuthica); assay: as above

With “SmuA(V465E), sucrose isomerase from Serratia plymuthica, produced in the cytoplasm of E. coli” as the substance, how does the “ratio of dimer to monomer (SEC peaks)” value [1] read?
The value was “a ratio of 3 : 1”.

With “SmuA(V465E), sucrose isomerase from Serratia plymuthica, produced in the cytoplasm of E. coli (enzyme)” as the substance, how does the stoichiometry N [2] read?
Its stoichiometry N is 2.

With “SmuA(V465E), sucrose isomerase from Serratia plymuthica, produced in the periplasm of E. coli” as the substance, how does the “ratio between monomer and dimer (SEC peaks)” value [1] read?
The value was “the ratio between monomer and dimer to 10 : 1”.

With “SmuA(V465E), sucrose isomerase from Serratia plymuthica, produced in the periplasm of E. coli (enzyme)” as the substance, how does the stoichiometry N [3] read?
Its stoichiometry N is 2.
